Measured values from US20170128524A1.

Target: c-Jun N-terminal Kinase (JNK)
Assay: cell-based or functional assay

## L-JNKi1 (peptide)
  phosphorylation of STX1a (S14) in synaptosomes, L-JNKi1 on its own: -45%
